In IntAct's records for PubMed 19513100:

How the values were obtained:
fog1_human ZFPM1 = fog1_human ZFPM1 (UniProt Q8IX07)
rb_mouse Rb1 = rb_mouse Rb1 (UniProt P13405)
Chain of rb_mouse Rb1 (P13405 whole entry): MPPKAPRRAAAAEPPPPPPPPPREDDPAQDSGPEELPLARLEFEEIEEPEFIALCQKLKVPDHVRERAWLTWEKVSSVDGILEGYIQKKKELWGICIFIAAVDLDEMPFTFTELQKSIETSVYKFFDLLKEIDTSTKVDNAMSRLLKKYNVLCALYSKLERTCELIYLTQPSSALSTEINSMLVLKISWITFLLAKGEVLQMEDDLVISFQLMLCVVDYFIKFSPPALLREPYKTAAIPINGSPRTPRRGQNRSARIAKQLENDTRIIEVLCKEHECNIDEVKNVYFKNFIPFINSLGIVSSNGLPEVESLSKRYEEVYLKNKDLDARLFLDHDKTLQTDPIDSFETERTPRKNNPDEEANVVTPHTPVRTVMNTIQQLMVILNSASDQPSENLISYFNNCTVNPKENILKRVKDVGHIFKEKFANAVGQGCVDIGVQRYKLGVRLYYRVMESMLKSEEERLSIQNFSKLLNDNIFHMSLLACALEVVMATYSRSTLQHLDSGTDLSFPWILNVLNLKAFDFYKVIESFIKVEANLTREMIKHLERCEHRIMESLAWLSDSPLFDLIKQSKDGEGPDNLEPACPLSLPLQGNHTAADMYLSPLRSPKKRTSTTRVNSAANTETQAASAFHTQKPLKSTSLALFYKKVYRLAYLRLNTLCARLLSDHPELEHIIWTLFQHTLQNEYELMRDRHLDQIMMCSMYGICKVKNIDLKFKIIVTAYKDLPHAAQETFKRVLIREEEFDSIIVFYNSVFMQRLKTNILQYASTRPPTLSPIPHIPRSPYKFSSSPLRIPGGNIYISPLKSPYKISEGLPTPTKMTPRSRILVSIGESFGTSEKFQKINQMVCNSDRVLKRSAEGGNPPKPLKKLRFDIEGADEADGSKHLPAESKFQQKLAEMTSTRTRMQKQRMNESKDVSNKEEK

Chain of Erythroid transcription factor (Homo sapiens), P15976 C83G;E85K (P15976 whole entry C83G/E85K): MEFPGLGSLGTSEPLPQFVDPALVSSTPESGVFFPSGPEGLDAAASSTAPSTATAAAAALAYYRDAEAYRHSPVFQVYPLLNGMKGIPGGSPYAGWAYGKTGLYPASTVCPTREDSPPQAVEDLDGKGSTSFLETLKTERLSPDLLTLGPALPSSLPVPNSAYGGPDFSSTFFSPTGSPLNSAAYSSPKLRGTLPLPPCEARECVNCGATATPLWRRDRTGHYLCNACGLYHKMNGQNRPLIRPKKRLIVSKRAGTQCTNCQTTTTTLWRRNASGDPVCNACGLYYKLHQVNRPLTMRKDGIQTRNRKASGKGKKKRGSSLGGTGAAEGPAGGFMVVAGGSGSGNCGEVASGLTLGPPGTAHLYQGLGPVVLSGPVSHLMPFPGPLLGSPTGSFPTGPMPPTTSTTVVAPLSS
Chain of Erythroid transcription factor (Homo sapiens), P15976 V205G (P15976 whole entry V205G): as the sequence (P15976 whole entry C83G/E85K) above, with G83C, K85E, V205G counted along it
Chain of fog1_human ZFPM1 (Q8IX07 whole entry): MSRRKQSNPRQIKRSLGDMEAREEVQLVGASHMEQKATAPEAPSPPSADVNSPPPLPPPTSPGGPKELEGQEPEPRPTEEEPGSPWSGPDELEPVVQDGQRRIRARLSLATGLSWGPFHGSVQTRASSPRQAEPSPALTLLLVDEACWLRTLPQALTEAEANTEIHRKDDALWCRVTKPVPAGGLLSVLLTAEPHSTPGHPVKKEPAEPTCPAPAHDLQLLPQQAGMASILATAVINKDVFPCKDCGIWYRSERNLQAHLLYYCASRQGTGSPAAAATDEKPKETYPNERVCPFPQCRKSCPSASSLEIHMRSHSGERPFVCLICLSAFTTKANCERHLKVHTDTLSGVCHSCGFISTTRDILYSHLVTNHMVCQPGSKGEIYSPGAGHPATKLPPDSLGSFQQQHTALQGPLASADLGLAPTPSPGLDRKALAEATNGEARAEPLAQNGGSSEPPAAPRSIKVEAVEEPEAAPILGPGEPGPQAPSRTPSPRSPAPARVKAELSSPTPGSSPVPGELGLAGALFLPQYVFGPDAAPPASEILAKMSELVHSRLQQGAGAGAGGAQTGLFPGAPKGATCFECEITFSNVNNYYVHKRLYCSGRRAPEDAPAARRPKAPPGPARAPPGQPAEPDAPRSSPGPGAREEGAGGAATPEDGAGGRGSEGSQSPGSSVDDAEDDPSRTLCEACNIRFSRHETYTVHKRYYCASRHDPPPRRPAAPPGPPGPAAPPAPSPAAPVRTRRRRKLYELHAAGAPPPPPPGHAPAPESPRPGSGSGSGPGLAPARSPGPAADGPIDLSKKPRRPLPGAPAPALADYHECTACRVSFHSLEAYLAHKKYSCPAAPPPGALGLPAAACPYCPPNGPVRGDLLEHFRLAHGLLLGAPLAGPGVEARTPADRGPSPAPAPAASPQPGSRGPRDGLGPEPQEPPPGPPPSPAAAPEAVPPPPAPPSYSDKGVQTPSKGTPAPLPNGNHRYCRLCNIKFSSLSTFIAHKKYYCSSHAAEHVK

| Substance | effect of a mutation on the interaction (fog1_human ZFPM1) | effect of a mutation on the interaction (rb_mouse Rb1) |
| --- | --- | --- |
| Erythroid transcription factor (Homo sapiens), P15976 V205G | disrupting interaction | – |
| Erythroid transcription factor (Homo sapiens), P15976 C83G;E85K | – | disrupting interaction |
